In paper PMC10397247:

Legend:
Assay in all cases: two-hybrid library CCNG1;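 note: natural log of median RNA to DNA barcode read ratio; higher means stronger binding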
[1] = biological target: T1, 4H349-bN
T1 chain: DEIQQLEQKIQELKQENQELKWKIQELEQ

[2] = biological target: T2, 4H235-bN
T2 chain: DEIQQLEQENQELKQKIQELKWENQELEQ

[3] = biological target: T3, 4H166-bN
T3 chain: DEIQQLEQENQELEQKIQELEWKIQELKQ

[4] = biological target: T4, 4H3364-bN
T4 chain: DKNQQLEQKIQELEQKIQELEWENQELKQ

[5] = biological target: T5, 4H3381-bN
T5 chain: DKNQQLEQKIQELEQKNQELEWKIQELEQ

[6] = biological target: T6, 4H2859-bN
T6 chain: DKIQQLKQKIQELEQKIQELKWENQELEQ

[7] = biological target: T7, 4H2760-bN
T7 chain: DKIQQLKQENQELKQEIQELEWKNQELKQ

[8] = biological target: T8, 4H264-bN
T8 chain: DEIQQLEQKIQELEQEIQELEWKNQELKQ

[9] = biological target: T9, 4H949-bN
T9 chain: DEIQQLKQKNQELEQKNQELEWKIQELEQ

[10] = biological target: T10, 4H2143-bN
T10 chain: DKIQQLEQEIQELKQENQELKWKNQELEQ

[11] = biological target: T11, 4H730-bN
T11 chain: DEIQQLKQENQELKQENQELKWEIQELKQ

[12] = biological target: T12, 4H796-bN
T12 chain: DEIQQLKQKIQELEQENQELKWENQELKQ

[13] = biological target: T13, 4H2162-bN
T13 chain: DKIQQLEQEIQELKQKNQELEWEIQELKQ

[14] = biological target: T14, 4H3041-bN
T14 chain: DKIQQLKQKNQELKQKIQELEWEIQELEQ

[15] = biological target: T15, 4H932-bN
T15 chain: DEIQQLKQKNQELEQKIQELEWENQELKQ

[16] = biological target: T16, 4H2931-bN
T16 chain: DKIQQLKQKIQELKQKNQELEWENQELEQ

[17] = biological target: T17, 4H56-bN
T17 chain: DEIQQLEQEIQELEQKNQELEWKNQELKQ

[18] = biological target: T18, 4H2585-bN
T18 chain: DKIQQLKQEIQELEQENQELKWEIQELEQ

[19] = biological target: T19, 4H2233-bN
T19 chain: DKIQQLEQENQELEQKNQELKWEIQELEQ

[20] = biological target: T20, 4H2444-bN
T20 chain: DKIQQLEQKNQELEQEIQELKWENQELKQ

[21] = biological target: T21, 4H2518-bN
T21 chain: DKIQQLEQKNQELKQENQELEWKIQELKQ

[22] = biological target: T22, 4H3297-bN
T22 chain: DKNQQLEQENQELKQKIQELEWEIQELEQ

[23] = biological target: T23, 4H2253-bN
T23 chain: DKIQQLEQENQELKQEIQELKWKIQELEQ

[24] = biological target: T24, 4H72-bN
T24 chain: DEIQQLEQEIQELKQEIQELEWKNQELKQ

[25] = biological target: T25, 4H2576-bN
T25 chain: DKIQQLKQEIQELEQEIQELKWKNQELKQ

[26] = biological target: T26, 4H1845-bN
T26 chain: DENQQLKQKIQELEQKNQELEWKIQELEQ

[27] = biological target: T27, 4H967-bN
T27 chain: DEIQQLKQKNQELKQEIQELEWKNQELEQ

[28] = biological target: T28, 4H687-bN
T28 chain: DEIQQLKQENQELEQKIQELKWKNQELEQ

[29] = biological target: T29, 4H2729-bN
T29 chain: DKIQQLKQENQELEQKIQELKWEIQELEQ

[30] = biological target: T30, 4H568-bN
T30 chain: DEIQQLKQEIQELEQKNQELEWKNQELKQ

[31] = biological target: T31, 4H331-bN
T31 chain: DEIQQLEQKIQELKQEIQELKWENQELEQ

[32] = biological target: T32, 4H2667-bN
T32 chain: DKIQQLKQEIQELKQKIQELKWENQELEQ

[33] = biological target: T33, 4H1828-bN
T33 chain: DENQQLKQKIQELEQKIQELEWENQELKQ

[34] = biological target: T34, 4H908-bN
T34 chain: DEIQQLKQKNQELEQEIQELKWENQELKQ

[35] = biological target: T35, 4H797-bN
T35 chain: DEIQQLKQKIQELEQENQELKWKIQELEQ

[36] = biological target: T36, 4H2618-bN
T36 chain: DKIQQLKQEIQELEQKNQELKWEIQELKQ

[37] = biological target: T37, 4H883-bN
T37 chain: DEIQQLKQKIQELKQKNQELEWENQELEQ

[38] = biological target: T38, 4H3782-bN
T38 chain: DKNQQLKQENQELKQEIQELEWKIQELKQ

[39] = biological target: T39, 4H918-bN
T39 chain: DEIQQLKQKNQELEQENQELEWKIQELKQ

[40] = biological target: T40, P3A-bN
T40 chain: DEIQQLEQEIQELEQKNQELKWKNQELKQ

[41] = biological target: T41, 4H338-bN
T41 chain: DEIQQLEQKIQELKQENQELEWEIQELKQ

[42] = biological target: T42, 4H454-bN
T42 chain: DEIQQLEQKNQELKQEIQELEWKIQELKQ

[43] = biological target: T43, 4H3112-bN
T43 chain: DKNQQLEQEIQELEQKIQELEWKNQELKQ

[44] = biological target: T44, 4H3855-bN
T44 chain: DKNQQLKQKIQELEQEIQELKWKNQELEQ

[45] = biological target: T45, 4H3354-bN
T45 chain: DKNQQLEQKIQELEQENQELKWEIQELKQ

[46] = biological target: T46, 4H4001-bN
T46 chain: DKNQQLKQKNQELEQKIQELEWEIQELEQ

[47] = biological target: T47, 4H1257-bN
T47 chain: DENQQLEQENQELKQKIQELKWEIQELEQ

[48] = biological target: T48, 4H754-bN
T48 chain: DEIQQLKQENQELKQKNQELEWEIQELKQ

[49] = biological target: T49, 4H3185-bN
T49 chain: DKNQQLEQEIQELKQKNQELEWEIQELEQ

[50] = biological target: T50, 4H607-bN
T50 chain: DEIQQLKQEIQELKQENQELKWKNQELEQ

[51] = biological target: T51, 4H2442-bN
T51 chain: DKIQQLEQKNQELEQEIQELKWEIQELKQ

[52] = biological target: T52, 4H1446-bN
T52 chain: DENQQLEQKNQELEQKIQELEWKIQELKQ

[53] = biological target: T53, 4H3427-bN
T53 chain: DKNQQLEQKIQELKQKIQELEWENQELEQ

[54] = biological target: T54, 4H717-bN
T54 chain: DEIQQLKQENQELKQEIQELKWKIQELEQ

[55] = biological target: T55, 4H953-bN
T55 chain: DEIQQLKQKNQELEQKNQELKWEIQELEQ

Question: Which results are given for DEIQQLEQENQELEQKIQELEWKIQELKQ [4H166-bN]?
Answer: interaction score [1]: -0.759; interaction score [2]: -0.365; interaction score [3]: 0.12; interaction score [4]: -0.154; interaction score [5]: 0.0552; interaction score [6]: 0.54; interaction score [7]: 0.225; interaction score [8]: 0.717; interaction score [9]: -0.601; interaction score [10]: 0.201; interaction score [11]: -0.71; interaction score [12]: -1.95; interaction score [13]: 0.326; interaction score [14]: 1.6; interaction score [15]: -0.134; interaction score [16]: -0.274; interaction score [17]: -0.199; interaction score [18]: -0.823; interaction score [19]: 0.155; interaction score [20]: 0.231; interaction score [21]: 1.34; interaction score [22]: 1.54; interaction score [23]: -0.769

Question: For DENQQLEQENQELKQKIQELKWEIQELEQ [4H1257-bN], which interaction score [24] is on record?
Answer: -1.99

Question: And the interaction score [25]?
Answer: -0.613

Question: What about the interaction score [26] of the same binder?
Answer: -0.503

Question: What about the interaction score [27] of the same binder?
Answer: -0.47

Question: What about the interaction score [28] of the same binder?
Answer: -1.24

Question: And the interaction score [29]?
Answer: -0.506

Question: And the interaction score [30]?
Answer: -1.28

Question: What about the interaction score [31] of the same binder?
Answer: -1.48

Question: And the interaction score [32]?
Answer: -1.35

Question: What about the interaction score [33] of the same binder?
Answer: -0.561

Question: And the interaction score [34]?
Answer: -1.39

Question: What about the interaction score [35] of the same binder?
Answer: -0.946

Question: What about the interaction score [36] of the same binder?
Answer: -0.173

Question: And the interaction score [37]?
Answer: -1.31

Question: And the interaction score [38]?
Answer: 1.9

Question: And the interaction score [39]?
Answer: -1.21

Question: What about the interaction score [40] of the same binder?
Answer: -1.36

Question: What about the interaction score [41] of the same binder?
Answer: -0.857

Question: And the interaction score [42]?
Answer: 0.889

Question: And the interaction score [43]?
Answer: -0.702

Question: What about the interaction score [44] of the same binder?
Answer: -0.77

Question: What about the interaction score [45] of the same binder?
Answer: -1.08

Question: What about the interaction score [46] of the same binder?
Answer: -1.89

Question: And the interaction score [47]?
Answer: -1.67

Question: What about the interaction score [48] of the same binder?
Answer: -1.46

Question: What about the interaction score [49] of the same binder?
Answer: -1.45

Question: What about the interaction score [50] of the same binder?
Answer: -0.95

Question: And the interaction score [51]?
Answer: -1.13

Question: And the interaction score [52]?
Answer: -0.533

Question: And the interaction score [53]?
Answer: -0.768

Question: And the interaction score [54]?
Answer: -1.05

Question: And the interaction score [55]?
Answer: -0.733
